Test results taken from US20110044994A1 (THERACLONE SCIENCES, published 2011).
Positions count from the first letter of the chain named.

B1: 1495_C14 (PGC14) (antibody, human IgG1, lambda, V domains shown)
VH: DGHLVQSGVEVKKTGATVKISCKVSGYSFIDYYLHWVQRAPGKGLEWVGLIDPENGEARYAEKFQGRVTIIADTSIDTGYMEMRSLKSEDTAVYFCAAGAVGADSGSWFDPWGQGTLVTVSS
VL: SYELTQPPSVSVSPGQTASITCSGSKLGDKYVSWYQLRPGQSPILVMYENDRRPSGIPERFSGSNSGDTATLTISGTQALDEADFYCQAWETTTTTFVFFGGGTQLTVLG
B2: 1443_C16 (PG16) (antibody, V domains shown)
VH: QEQLVESGGGVVQPGGSLRLSCLASGFTFHKYGMHWVRQAPGKGLEWVALISDDGMRKYHSDSMWGRVTISRDNSKNTLYLQFSSLKVEDTAMFFCAREAGGPIWHDDVKYYDFNDGYYNYHYMDVWGKGTTVTVSS
VL: QSALTQPASVSGSPGQTITISCNGTSSDVGGFDSVSWYQQSPGKAPKVMVFDVSHRPSGISNRFSGSKSGNTASLTISGLHIEDEGDYFCSSLTDRSHRIFGGGTKVTVLG
B3: 1456_P20 (PG20) (antibody, human IgG1, kappa, V domains shown)
VH: QVRLVQSGPEVKKPGSSVTVSCQASGGTFSSYAFTWVRQAPGQGLEWLGMVTPIFGEAKYSQRFEGRVTITADESTSTTSIELRGLTSEDTAIYYCARDRRAVPIATDNWLDPWGQGTLVTVSS
VL: DIQLTQSPSSLSASVGDRVSITCRASQTINNYLNWYQQTPGKAPKLLIYGASNLQNGVPSRFSGSGSGTDFTLTISSLQPEDFATYYCQQSFSTPRTFGQGTRLDIKR
B4: 1460_G14 (PGG14) (antibody, human IgG1, kappa, V domains shown)
VH: QVLLVQSGTEVKKPGSSVKVSCQASGGAFSSYAFSWVRQAPGQGLEWMGMITPVFGETKYAPRFQGRLTLTAEESLSTTYMELRSLTSDDTAFYYCTRDRRVVPMATDNWLDPWGQGTLVTVSS
VL: B3 VL with S20T, I21V, N30H, N31T, T39I, N53T, N56S, S76N, F92Y
B5: 1496_C09 (PG9) (antibody, V domains shown)
VH: QRLVESGGGVVQPGSSLRLSCAASGFDFSRQGMHWVRQAPGQGLEWVAFIKYDGSEKYHADSVWGRLSISRDNSKDTLYLQMNSLRVEDTATYFCVREAGGPDYRNGYNYYDFYDGYYNYHYMDVWGKGTTVTVSS
VL: QSALTQPASVSGSPGQSITISCNGTSNDVGGYESVSWYQQHPGKAPKVVIYDVSKRPSGVSNRFSGSKSGNTASLTISGLQAEDEGDYYCKSLTSTRRRVFGTGTKLTVLG

Legend:
recombinant gp41HxB2 [1] = molecular target: T1, recombinant gp41HxB2 (HIV-1, UniProt P04578 541-682); experiment: ELISA
T1 construct: domain: gp41

[2] = molecular target: T2, recombinant, monomeric gp120JR-CSF (HIV-1, UniProt P20871 32-503); experiment: mAb specificity by ELISA
T2 construct: domain: gp120; also called JR-CSF gp120; JR-CSFgp120

[3] = molecular target: JR-CSF pseudovirus (HIV-1 Env on the virions) (HIV-1, UniProt P20871 32-848); experiment: cell-based or functional assay
[4] = molecular target: JR-FL (E168K) pseudovirus Env (HIV-1); experiment: cell-based or functional assay
ADA pseudovirus Env = ADA pseudovirus Env (HIV-1); experiment: cell-based or functional assay
92RW020 pseudovirus Env = 92RW020 pseudovirus Env (HIV-1); experiment: cell-based or functional assay
[5] = molecular target: T2, recombinant, monomeric gp120JR-CSF; experiment: ELISA screen of B cell culture supernatants
recombinant gp41HxB2 [6] = molecular target: T1, recombinant gp41HxB2; experiment: ELISA screen of B cell culture supernatants

Binder	binding result (recombinant gp41HxB2 [1])	binding result [2]	IC50 (ug/ml), pseudovirus neutralization, TZM-bl assay [3]	IC50 (ug/ml), pseudovirus neutralization, TZM-bl assay [4]	IC50 (ug/ml), pseudovirus neutralization, TZM-bl assay (ADA pseudovirus Env)	IC50 (ug/ml), pseudovirus neutralization, TZM-bl assay (92RW020 pseudovirus Env)	binding result [5]	binding result (recombinant gp41HxB2 [6])
B1	no binding	binds						
B2			0.001 µg/mL	0.006 µg/mL	0.004 µg/mL	0.09 µg/mL	no binding	no binding
B3	no binding	binds						
B4	no binding	binds						
B5					0.2 µg/mL	0.1 µg/mL		no binding
